Source: article PMC7547085, “Specific and direct modulation of the interaction between adhesion GPCR GPR56/ADGRG1 and tissue transglutaminase 2 using synthetic ligands” (Scientific Reports, 2020)

B1: mouse full-length GPR56 (GPR56 FL), wild type, on HEK293T cells [mouse] / mouse tissue transglutaminase 2 C-terminal D3D4 domains (mTG2 D3D4) [modified: biotin on the AVI-tag; biotin on the AVI-tag] [mouse] (parent)
chain 1: TGVAMRIRVGDSMSMGNDFDVFAHIGNDTSETRECRLLLCARTVSYNGVLGPECGTEDINLTLDPYSENSIPLRILYEKYSGCLTESNLIKVRGLLIEPAANSYLLAERDLYLENPEIKIRVLGEPKQNRKLVAEVSLKNPLSDPLYDCIFTVEGAGLTKEQKSVEVSDPVPAGDLVKARVDLFPTDIGLHKLVVNFQCDKLKSVKGYRNVIIGPA
chain 2: GSPREDFRFCGQRNQTQQSTLHYDQSSEPHIFVWNTEETLTIRAPFLAAPDIPRFFPEPRGLYHFCLYWSRHTGRLHLRYGKHDYLLSSQASRLLCFQKQEQSLKQGAPLIATSVSSWQIPQNTSLPGAPSFIFSFHNAPHKVSHNASVDMCDLKKELQQLSRYLQHPQKAAKRPTAAFISQQLQSLESKLTSVSFLGDTLSFEEDRVNATVWKLPPTAGLEDLHIHSQKEEEQSEVQAYSLLLPRAVFQQTRGRRRDDAKRLLVVDFSSQALFQDKNSSQVLGEKVLGIVVQNTKVTNLSDPVVLTFQHQPQPKNVTLQCVFWVEDPASSSTGSWSSAGCETVSRDTQTSCLCNHLTYFAVLMVSSTEVEATHKHYLTLLSYVGCVISALACVFTIAAYLCSRRKSRDYTIKVHMNLLSAVFLLDVSFLLSEPVALTGSEAACRTSAMFLHFSLLACLSWMGLEGYNLYRLVVEVFGTYVPGYLLKLSIVGWGFPVFLVTLVALVDVNNYGPIILAVRRTPERVTYPSMCWIRDSLVSYVTNLGLFSLVFLFNLAMLATMVVQILRLRPHSQNWPHVLTLLGLSLVLGLPWALVFFSFASGTFQLVILYLFSIITSFQGFLIFLWYWSMRFQAQGGPSPLKNNSDSAKLPISSGSTSSSRI

Variants of: B1
Assay: flow cytometry on cells
Conditions: with mouse tissue transglutaminase 2 C-terminal D3D4 domains (mTG2 D3D4) [modified: biotin on the AVI-tag, 5 nM TG2 D3D4 (tetramerized), GPR56 FL constructs expressed on HEK293T cells, n = 3, parent: 1, read off a plot

Variant | ratio to parent
chain 2 H64A Y68A R79D | 0.2
chain 2 L62D S125A | 0.33
chain 2 L62D | 0.21
chain 2 H64A | 0.64
chain 2 Y68A | 0.33
chain 2 S125A | 8.7
chain 2 H64A S125A | 6.6
chain 2 H64A Y68A S125A | 4.1
chain 2 H64A Y68A | 0.22
